Here are results for nine molecules from patent US20180092966A1 (CSL, published 2018).

In assay [1] the target is T1, VWF-FP P1079C mutant (albumin-fused von Willebrand Factor) (human).
T1 construct: also called VWF-FP mutant P1079C; Cys residue at VWF aa position 1079; not shown: linker between VWF and albumin, made in analogy to WO 2009/156137
The assay can be described thus: covalent-FVIII ELISA over FVIII activity assay.

Assay [2] deals with T2, VWF-FP N1134C mutant (albumin-fused von Willebrand Factor) (human).
T2 construct: Stably expressed in CHO cells with furin co-transfected; also called VWF-FP mutant N1134C; Cys residue at VWF aa position 1134; not shown: linker between VWF and albumin, made in analogy to WO 2009/156137
T2 sequence (chain, as listed by the source N1134C N1134C): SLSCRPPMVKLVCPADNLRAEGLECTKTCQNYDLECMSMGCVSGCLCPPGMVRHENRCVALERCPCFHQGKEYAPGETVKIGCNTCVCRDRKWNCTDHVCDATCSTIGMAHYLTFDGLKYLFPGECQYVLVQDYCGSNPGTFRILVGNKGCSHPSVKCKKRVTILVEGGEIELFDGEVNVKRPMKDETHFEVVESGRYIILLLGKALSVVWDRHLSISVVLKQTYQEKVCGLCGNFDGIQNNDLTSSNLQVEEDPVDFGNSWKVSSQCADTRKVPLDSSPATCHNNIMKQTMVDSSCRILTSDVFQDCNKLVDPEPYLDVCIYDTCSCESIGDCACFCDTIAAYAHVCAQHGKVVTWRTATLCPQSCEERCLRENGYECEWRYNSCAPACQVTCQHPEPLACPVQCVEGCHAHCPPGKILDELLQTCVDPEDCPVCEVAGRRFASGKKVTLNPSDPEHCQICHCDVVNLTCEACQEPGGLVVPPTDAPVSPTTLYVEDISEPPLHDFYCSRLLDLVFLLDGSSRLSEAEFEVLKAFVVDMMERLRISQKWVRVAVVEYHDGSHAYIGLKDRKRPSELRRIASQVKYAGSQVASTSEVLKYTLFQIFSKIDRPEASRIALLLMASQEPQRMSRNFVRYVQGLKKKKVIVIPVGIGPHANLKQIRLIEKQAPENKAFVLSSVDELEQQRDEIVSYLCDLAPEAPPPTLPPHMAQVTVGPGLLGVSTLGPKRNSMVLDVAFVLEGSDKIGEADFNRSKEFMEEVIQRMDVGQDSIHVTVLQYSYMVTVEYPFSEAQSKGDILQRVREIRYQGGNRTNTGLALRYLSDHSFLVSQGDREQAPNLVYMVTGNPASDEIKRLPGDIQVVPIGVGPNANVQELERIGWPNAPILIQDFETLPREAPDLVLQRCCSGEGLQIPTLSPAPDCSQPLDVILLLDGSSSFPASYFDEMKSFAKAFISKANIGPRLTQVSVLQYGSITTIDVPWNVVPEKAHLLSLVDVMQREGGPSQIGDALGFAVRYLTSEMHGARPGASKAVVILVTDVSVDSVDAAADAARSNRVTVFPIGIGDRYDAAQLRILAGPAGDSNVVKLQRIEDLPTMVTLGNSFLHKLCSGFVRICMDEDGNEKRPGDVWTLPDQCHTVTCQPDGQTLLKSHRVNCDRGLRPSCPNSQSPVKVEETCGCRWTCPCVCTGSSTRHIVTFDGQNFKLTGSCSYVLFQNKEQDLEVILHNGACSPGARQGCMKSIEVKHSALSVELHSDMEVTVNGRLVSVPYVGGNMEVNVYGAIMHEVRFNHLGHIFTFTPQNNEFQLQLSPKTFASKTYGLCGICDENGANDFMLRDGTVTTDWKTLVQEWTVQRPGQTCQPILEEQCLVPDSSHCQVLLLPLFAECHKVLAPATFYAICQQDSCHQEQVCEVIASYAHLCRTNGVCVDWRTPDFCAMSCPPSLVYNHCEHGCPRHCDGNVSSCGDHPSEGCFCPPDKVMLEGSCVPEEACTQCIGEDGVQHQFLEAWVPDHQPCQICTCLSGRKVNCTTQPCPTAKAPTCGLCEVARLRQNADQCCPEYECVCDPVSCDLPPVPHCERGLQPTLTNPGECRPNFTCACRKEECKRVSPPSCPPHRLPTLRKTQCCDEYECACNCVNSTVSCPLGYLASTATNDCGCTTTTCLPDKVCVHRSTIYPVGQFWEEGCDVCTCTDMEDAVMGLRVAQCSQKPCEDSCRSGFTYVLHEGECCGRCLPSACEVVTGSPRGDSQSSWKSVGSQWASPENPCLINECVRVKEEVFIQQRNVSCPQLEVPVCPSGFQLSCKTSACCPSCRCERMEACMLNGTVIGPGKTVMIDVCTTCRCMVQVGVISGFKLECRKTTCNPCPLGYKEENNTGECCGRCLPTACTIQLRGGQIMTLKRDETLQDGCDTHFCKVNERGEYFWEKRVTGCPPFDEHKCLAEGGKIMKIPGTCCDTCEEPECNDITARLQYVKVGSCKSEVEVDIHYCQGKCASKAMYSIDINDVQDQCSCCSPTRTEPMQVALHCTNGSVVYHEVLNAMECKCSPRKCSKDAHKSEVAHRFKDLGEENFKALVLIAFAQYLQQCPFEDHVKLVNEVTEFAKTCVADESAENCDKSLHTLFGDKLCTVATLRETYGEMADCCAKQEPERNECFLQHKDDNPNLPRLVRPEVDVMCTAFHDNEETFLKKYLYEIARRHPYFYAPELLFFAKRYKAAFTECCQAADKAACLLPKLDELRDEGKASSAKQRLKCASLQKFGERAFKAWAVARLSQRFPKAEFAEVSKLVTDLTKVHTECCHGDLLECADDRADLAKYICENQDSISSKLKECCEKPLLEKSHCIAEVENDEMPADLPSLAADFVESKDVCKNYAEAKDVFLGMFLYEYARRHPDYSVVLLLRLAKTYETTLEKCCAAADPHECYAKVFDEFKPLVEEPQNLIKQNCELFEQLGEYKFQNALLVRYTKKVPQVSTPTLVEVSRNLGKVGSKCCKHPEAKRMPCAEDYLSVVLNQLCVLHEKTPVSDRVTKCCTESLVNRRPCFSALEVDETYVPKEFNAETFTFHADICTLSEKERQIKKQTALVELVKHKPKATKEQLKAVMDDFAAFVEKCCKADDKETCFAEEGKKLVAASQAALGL
The assay can be described thus: covalent-FVIII ELISA over FVIII activity assay.

Assay [3] deals with T1, VWF-FP P1079C mutant (albumin-fused von …). The assay can be described thus: ELISA of co-expression supernatant: anti-VWF capture, 350 mM CaCl2 wash, anti-FVIII detection. Here is the method:
(§1) Cell culture supernatant samples (10 ml) from transient transfections were concentrated with Amicon Ultracell-30K (Millipore UFC903024; 3000 g centrifugation). FVIII covalently attached to VWF-FP in culture supernatant (concentrates) was determined by a standard ELISA. Briefly, microplates were incubated with 100 μL per well of the capture antibody (rabbit anti human VWF-IgG, Dako A0082 [Dako, Hamburg, Germany], diluted 1:2000 in buffer A [Sigma C3041, Sigma-Aldrich, Munich, Germany]) overnight at ambient temperature. After washing plates three times with buffer B (Sigma T9039), each well was incubated with 200 μL buffer C (Sigma T6789) for 1.5 hours at ambient temperature (blocking). After another three wash steps with buffer B, serial dilutions of the test sample in buffer B as well as serial dilutions of a control preparation of covalently linked FVIII-VWF-FP, (2.0-0.03 arbitrary U/ml in buffer B (we call these “arbitrary units” as they may not correspond to the standard FVIII units as determined using Standard Human Plasma); volumes per well: 100 μL) were incubated for 1.5 hours at ambient temperature. After three wash steps with buffer B, 200 μL of 350 mM CaCl₂ were added to each well and incubated for 1 hour at ambient temperature. CaCl₂ was removed (without washing) and additional 200 μl were added to each well and incubated further for 1 hour. After three wash steps with buffer B 100 μL of a 1:2 dilution in buffer B of the detection antibody (Detecting Antibody for FVIII:C, peroxidase labelled, Cedarlane CL20035K-D) were added to each well and incubated for 1 hour at ambient temperature. After three wash steps with buffer B, 100 μL of substrate solution (OUVF, Siemens Healthcare Diagnostics) were added per well and incubated for 15 minutes at ambient temperature in the dark. Addition of 100 μL undiluted stop dilution (OSFA, Siemens Healthcare Diagnostics) prepared the samples for reading in a suitable microplate reader at 450 nm wavelength. Concentrations of the test samples were then calculated using the standard curve with the control preparation.

Assay [4] concerns the target T2, VWF-FP N1134C mutant (albumin-fused von …). The description is as above. Here is the method: as §1
Assay [5] deals with T1, VWF-FP P1079C mutant (albumin-fused von …). The assay can be described thus: covalent-FVIII ELISA over FVIII antigen ELISA.
Assay [6] concerns the target T2, VWF-FP N1134C mutant (albumin-fused von …). The assay can be described thus: covalent-FVIII ELISA over FVIII antigen ELISA.
In assay [7] the target is T3, VWF-FP K1116C mutant (albumin-fused von Willebrand Factor) (human).
T3 construct: Stably expressed in CHO cells with furin co-transfected; also called VWF-FP mutant K1116C; Cys residue at VWF aa position 1116; not shown: linker between VWF and albumin, made in analogy to WO 2009/156137
T3 sequence (chain, as listed by the source K1116C K1116C): as the sequence (chain, as listed by the source N1134C N1134C) above, with K353C, C371N counted along it
The assay can be described thus: covalent-FVIII ELISA over FVIII activity assay.

Assay [8] addresses T4, VWF-FP R768C mutant (albumin-fused von Willebrand Factor) (human).
T4 construct: Stably expressed in CHO cells with furin co-transfected; also called VWF-FP mutant R768C; Cys residue at VWF aa position 768; not shown: linker between VWF and albumin, made in analogy to WO 2009/156137
The assay can be described thus: covalent-FVIII ELISA over FVIII activity assay.

Assay [9] concerns the target T3, VWF-FP K1116C mutant (albumin-fused von …). The assay can be described thus: ELISA of co-expression supernatant: anti-VWF capture, 350 mM CaCl2 wash, anti-FVIII detection. Here is the method: as §1
In assay [10] the target is T4, VWF-FP R768C mutant (albumin-fused von …). The description is as above. Here is the method: as §1
Assay [11] concerns the target T3, VWF-FP K1116C mutant (albumin-fused von …). The assay can be described thus: covalent-FVIII ELISA over FVIII antigen ELISA.
For assay [12], the target named is T4, VWF-FP R768C mutant (albumin-fused von …). The assay can be described thus: covalent-FVIII ELISA over FVIII antigen ELISA.

Where a chain is given by its changes, count along the chain named. In names and notes the source's numbering stands.

T4 sequence (chain, as listed by the source R768C R768C): as the sequence (chain, as listed by the source N1134C N1134C) above, with R5C, C371N counted along it
T1 sequence (chain, as listed by the source P1079C P1079C): as the sequence (chain, as listed by the source N1134C N1134C) above, with P316C, C371N counted along it

B1: Factor VIII SingleChain T1654C mutant (other)
chain: ATRRYYLGAVELSWDYMQSDLGELPVDARFPPRVPKSFPFNTSVVYKKTLFVEFTDHLFNIAKPRPPWMGLLGPTIQAEVYDTVVITLKNMASHPVSLHAVGVSYWKASEGAEYDDQTSQREKEDDKVFPGGSHTYVWQVLKENGPMASDPLCLTYSYLSHVDLVKDLNSGLIGALLVCREGSLAKEKTQTLHKFILLFAVFDEGKSWHSETKNSLMQDRDAASARAWPKMHTVNGYVNRSLPGLIGCHRKSVYWHVIGMGTTPEVHSIFLEGHTFLVRNHRQASLEISPITFLTAQTLLMDLGQFLLFCHISSHQHDGMEAYVKVDSCPEEPQLRMKNNEEAEDYDDDLTDSEMDVVRFDDDNSPSFIQIRSVAKKHPKTWVHYIAAEEEDWDYAPLVLAPDDRSYKSQYLNNGPQRIGRKYKKVRFMAYTDETFKTREAIQHESGILGPLLYGEVGDTLLIIFKNQASRPYNIYPHGITDVRPLYSRRLPKGVKHLKDFPILPGEIFKYKWTVTVEDGPTKSDPRCLTRYYSSFVNMERDLASGLIGPLLICYKESVDQRGNQIMSDKRNVILFSVFDENRSWYLTENIQRFLPNPAGVQLEDPEFQASNIMHSINGYVFDSLQLSVCLHEVAYWYILSIGAQTDFLSVFFSGYTFKHKMVYEDTLTLFPFSGETVFMSMENPGLWILGCHNSDFRNRGMTALLKVSSCDKNTGDYYEDSYEDISAYLLSKNNAIEPRSFSQNSRHRSTRQKQFNATTIPENTCLQSDQEEIDYDDTISVEMKKEDFDIYDEDENQSPRSFQKKTRHYFIAAVERLWDYGMSSSPHVLRNRAQSGSVPQFKKVVFQEFTDGSFTQPLYRGELNEHLGLLGPYIRAEVEDNIMVTFRNQASRPYSFYSSLISYEEDQRQGAEPRKNFVKPNETKTYFWKVQHHMAPTKDEFDCKAWAYFSDVDLEKDVHSGLIGPLLVCHTNTLNPAHGRQVTVQEFALFFTIFDETKSWYFTENMERNCRAPCNIQMEDPTFKENYRFHAINGYIMDTLPGLVMAQDQRIRWYLLSMGSNENIHSIHFSGHVFTVRKKEEYKMALYNLYPGVFETVEMLPSKAGIWRVECLIGEHLHAGMSTLFLVYSNKCQTPLGMASGHIRDFQITASGQYGQWAPKLARLHYSGSINAWSTKEPFSWIKVDLLAPMIIHGIKTQGARQKFSSLYISQFIIMYSLDGKKWQTYRGNSTGTLMVFFGNVDSSGIKHNIFNPPIIARYIRLHPTHYSIRSTLRMELMGCDLNSCSMPLGMESKAISDAQITASSYFTNMFATWSPSKARLHLQGRSNAWRPQVNNPKEWLQVDFQKTMKVTGVTTQGVKSLLTSMYVKEFLISSSQDGHQWTLFFQNGKVKVFQGNQDSFTPVVNSLDPPLLTRYLRIHPQSWVHQIALRMEVLGCEAQDLY
notes: Single-chain FVIII with partial B-domain deletion (per WO 2004/067566); also called FVIII-SC T1654C; Cys residue at FVIII aa position 1654
B1: the “ratio covalent FVIII/Total FVIII activity” value came out at 1.59 in [1] and 1.14 in assay [2]. For the same molecule, the “covalent FVIII” value in [3] was determined as 409 amU/ml; in assay [4], 424 amU/ml. Further, the “ratio covalent FVIII/Total FVIII antigen” value in assay [5] was 0.97; in assay [6], 0.85.

B2: Factor VIII SingleChain D1681C mutant (other)
chain: B1 chain with C766T, D793C
notes: Single-chain FVIII with partial B-domain deletion; also called FVIII-SC D1681C; Cys residue at FVIII aa position 1681
In the case of B2, the “ratio covalent FVIII/Total FVIII activity” value in [7] turned out to be 0.6; in [8], 1.5. Besides, the “covalent FVIII” value came to 1440 amU/ml in assay [9] and 87 amU/ml in assay [10]. The “ratio covalent FVIII/Total FVIII antigen” value in assay [11] is 2.23; in [12], 1.55.

B3: Factor VIII SingleChain F1677C mutant (other)
chain: B1 chain with C766T, F789C
notes: Single-chain FVIII with partial B-domain deletion; also called FVIII-SC F1677C; Cys residue at FVIII aa position 1677
In the case of B3, the “ratio covalent FVIII/Total FVIII activity” value in assay [7] stood at 1.66. Also, the “covalent FVIII” value in assay [9] is 1080 amU/ml. Further, the “ratio covalent FVIII/Total FVIII antigen” value in assay [11] was 0.79.

B4: Factor VIII SingleChain E1682C mutant (other)
chain: B1 chain with C766T, E794C
notes: Single-chain FVIII with partial B-domain deletion; also called FVIII-SC E1682C; Cys residue at FVIII aa position 1682
For B4, the results for the “ratio covalent FVIII/Total FVIII activity” value in assay [7] and in [8] were 0.34 and 2.11, respectively. In addition, the “covalent FVIII” value in assay [9] was found to be 488 amU/ml; in [10], 328 amU/ml. Moreover, the results for the “ratio covalent FVIII/Total FVIII antigen” value in assay [11] and in assay [12] were 1.23 and 2.23, respectively.

B5: Factor VIII SingleChain I1679C mutant (other)
chain: B1 chain with C766T, I791C
notes: Single-chain FVIII with partial B-domain deletion; also called FVIII-SC I1679C mutant; Cys residue at FVIII aa position 1679
B5: the “ratio covalent FVIII/Total FVIII activity” value in [7] was found to be 1.12; in assay [1], 1.26. The “covalent FVIII” value worked out at 992 amU/ml in assay [9] and 398 amU/ml in assay [3]. Further, the “ratio covalent FVIII/Total FVIII antigen” value is 0.85 in assay [11] and 1.14 in [5].

B6: Factor VIII SingleChain D1683C mutant (other)
chain: B1 chain with C766T, D795C
notes: Single-chain FVIII with partial B-domain deletion; also called FVIII-SC D1683C; Cys residue at FVIII aa position 1683
As for B6, the figures for the “ratio covalent FVIII/Total FVIII activity” value in assay [7] and in [8] were 0.42 and 4.07, respectively. Besides, the figures for the “covalent FVIII” value in assay [9] and in [10] were 1350 amU/ml and 2210 amU/ml, respectively. Also, the “ratio covalent FVIII/Total FVIII antigen” value was 1.76 in assay [11] and 3.07 in assay [12].

B7: Factor VIII SingleChain Q1656C mutant (other)
chain: B1 chain with C766T, Q768C
notes: Single-chain FVIII with partial B-domain deletion; also called FVIII-SC Q1656C; Cys residue at FVIII aa position 1656
Turning to B7, the “ratio covalent FVIII/Total FVIII activity” value in assay [2] worked out at 0.44. The “covalent FVIII” value in assay [4] was 435 amU/ml. In addition, the “ratio covalent FVIII/Total FVIII antigen” value in [6] was determined as 1.

B8: Factor VIII SingleChain E1684C mutant (other)
chain: B1 chain with C766T, E796C
notes: Single-chain FVIII with partial B-domain deletion; also called FVIII-SC E1684C; Cys residue at FVIII aa position 1684
As for B8, the “ratio covalent FVIII/Total FVIII activity” value in assay [7] is 0.38; in assay [2], 0.88; in assay [8] it was 1.05. Further, the “covalent FVIII” value in [9] was 1150 amU/ml; in assay [4] it was 741 amU/ml; in [10] it was 491 amU/ml. Moreover, the “ratio covalent FVIII/Total FVIII antigen” value in assay [11] is 1.53; in assay [6], 3.15; in assay [12] it was 0.69.

B9: Factor VIII SingleChain S1687C mutant (other)
chain: B1 chain with C766T, S799C
notes: Single-chain FVIII with partial B-domain deletion; also called FVIII-SC S1687C; Cys residue at FVIII aa position 1687
As for B9, the “ratio covalent FVIII/Total FVIII activity” value is 1.05 in [2] and 1.44 in assay [8]. The figures for the “covalent FVIII” value in assay [4] and in assay [10] were 843 amU/ml and 390 amU/ml, respectively. In addition, the “ratio covalent FVIII/Total FVIII antigen” value was determined as 2.05 in assay [6] and 0.49 in [12].
